From the DeepSol protein solubility set

assay: soluble on expression in E. coli; label from the status in PepcDB or PDB records

Sequence | soluble on expression in E. coli
MTAVVSNREEDSMNNEPSLSGRAIIGLIYPPPDIRTIVDKTARFAAKNGVDFENKIREKEAKNPKFNFLSITDPYHAYYKKMVYDFSEGRVEAPKVPQAVKEHVKKAEFVPSAPPPAYEFSADPSTINAYDLDLIRLVALFVARNGRQFLTQLMTREARNYQFDFLKPAHCNFTYFTKLVDQYQKVLVPSTNVVAQLQDDATNKKRLIEDINYRVSWEKHQKGLKDREEAEAEKERQAYASIDWHDFVVVQTVDFQPGDTSQLPPLCTPKDVGARILLEARNEMQKAAAEMQEMDMEESDSDDEDAVQAPEAPAFTAPLPPTKQKDVIVRDYDPKRNVTQKPKAVENWIISPLTGERIPSDKLAEHVRYNTVDSQYKEDRDRHIGERSTEEPVLALGADISRNLGNFAERRTDIFGVGGEQTMIGKKLGEEDNSQQGQNKLIWDGTEETRDMITRAVQNKVTLDQQINEIHRQHGFVADPSKEKIGAQQVPRHQSTQGNVTITQGITNIPGQMPSGWPPVPPMGMPGMPNQALPPIRQMDFGGGPPAKRPRTEDDLIPEADWLKKVNGAISLNVHLPQAPEHGMDGSIVQFTIQVTAPMSELKQQIQDRYGMPVGKQKLMSDGLFVKDNMSSAFYNLADRTAIYLQVKERGGKKK | not soluble
MAHHHHHHMLTTYNIIWKKEEEDDSLNIEKRNRLFHEHVKEQKNDILSPSEFDLLVNDIEDLLEEQQINETEKLYKVSKSPNEKFNKKYKLSITDLSAQLWCEQQLELVLTTGKRRETEAMRLGIERHEILEKADHLIVNVEVNTREESLGYRLLNSITLLGQLFQTKKAREVWVFGIIRNYVLRGIIDELRIEYDNVTKKEYLIISDTKTRKEKKEPSLAQKRTSAIQVQTYCLILQQLKNGKADFKKLFEIYECDPLFEFTAVDLVKYKNLENLSIELNKLFMKLPKIKEEMEIVYEHEGKEFSRNLIPYFYHSTLYTINILLDYWDGKRSSDVVENSDKWKCKFCDFVKNCVRCPLDY | not soluble
MSISASEARQRLFPLIEQVNTDHQPVRITSRAGDAVLMSADDYDAWQETVYLLRSPENARRLMEAVARDKAGHSAFTKSVDELREMAGGEE | soluble
MEEGIKMGTKLTSLFKEGEKYQINTKYKELPIKTNLKLLWIDENMKLLGFSIGACVFKGAFTPGTEVYIKINGKYAYGKVFSCSNELVIEFKEIRKEPEFIRRRTVRVEPDPANPVVVELKVDSYSIKTKAKDISETGVGVILEKDKPESAEVIDIIQKNPNSWFDLYVHLPKHGTAHAKGRVRNLSIEEEGIYIRIGFEAEYSKEDREKVRRYVFERQQEIIKSLKML | not soluble
MRIKLIIVEGKTDESFFKVLLEKLYGFREAKKLTPEFPIGKWGFRIGEHPLVLEKDNIALVIIHAEGKQRIPKVLKSVLDSVKLGLLNVEEVYVVRDVDEGNDVFEWVLSFLREREVRVDNGAIVTEGVKIYPYGMGNLTLNEPFVKEKKELELSLAYLAKLDGILEKYRGSMRALSQDKGDKLTPKDVMHILSIANDYTGDCLSGLYEKYIGIMIHRNRELLIRFLSEVNLLPLLERMVG | soluble
MSLTAPRLRILSVEVRERMMPFVRPFRFGPSVVEAAPQAFVRIELEVEGAGRAVGQAAEMMMPRWFDKAPHKSPEQTVDDLRRVLLHAAALYADAPWSTAYGLSADAAAMQLGWAEGRGIPALAAHFGPALLDKAVVDALLRALSLTFPEGLSRNVMGLDARNARDLSPEQIPALLASLTPVPAVAVRHTIGLLDPLEGPHGLSAEIAAARLRFFKIKIGGDLAADLDRLAAITALLTHLAPDFRATLDANEQYDPERLCQLAAGLDTPALRPLKARLLYIEQPFDRTETFTRPLPPALDGIPVIIDEADGGLDAFPRAIALGYRGVSSKACKGLYKSILNAVRVQAGEGTFLTAEDLTCQPGLGLQQDLALVATLGLTHGERNGHHYVAGFGPAPEEEAGAFAAAHPDLYRLTDAGAALDVSRGVLATASLLSAPGFAGRAEPDWASLAPVTEGHHHHHH | not soluble
QVQLQQPGAELVKPGASVKLSCKASGYTFTSDWIHWVKQRPGHGLEWIGEIIPSYGRANYNEKIQKKATLTADKSSSTAFMQLSSLTSEDSAVYYCARERGDGYFAVWGAGTTVTVSSAKTTPPSVYPLAPGSAAQTNSMVTLGCLVKGYFPEPVTVTWNSGSLSSGVHTFPAVLQSDLYTLSSSVTVPSSSWPSETVTCNVAHPASSTKVDKKIVPRD | soluble
MIERYSRPEMSAIWTDENRFQAWLEVEILACEAWAELGVIPKEDVKVMRENASFDINRILEIEKDTRHDVVAFTRAVSESLGEERKWVHYGLTSTDVVDTALSYLLKQANDILLKDLERFVDIIKEKAKEHKYTVMMGRTHGVHAEPTTFGLKLALWHEEMKRNLERFKQAKAGIEVGKISGAVGTYANIDPFVEQYVCEKLGLKAAPISTQTLQRDRHADYMATLALIATSIEKFAVEIRGLQKSETREVEEFFAKGQKGSSAMPHKRNPIGSENMTGMARVIRGYMMTAYENVPLWHERDISHSSAERIILPDATIALNYMLNRFSNIVKNLTVFPENMKRNMDRTLGLIYSQRVLLALIDTGLTREEAYDTVQPKAMEAWEKQVPFRELVEAEEKITSRLSPEKIADCFDYNYHLKNVDLIFERLGLA | soluble
AHHHHHHASAKWVCKICGYIYDEDAGDPDNGISPGTKFEELPDDWVCPICGAPKSEFEKLEDGSEKVDRIIQMEIGRINSHLPKARKSLCELLKEDSPSIELRDGSLHYFRRSELEFLKTLAGEEACLVKLPIILELSTLDRGYFVVRGRGEVRVIKKLLELSEDIYLEENTVRLPRYYLPTIRRKLPTTTVYAFITEW | soluble
MIRLTELKLPLNHEEGALLDAIAAKLKIPAQQVLSFTLFRRGYDARKKSDIQLIYTVDVEVANPEKLLAKFSKDQHVRPTPDMSYKFVAKAPENLPERPLVIGFGPCGLFAGLVLAQMGFNPIIVERGKEVRERTKDTFGFWRKRTLNTESNVQFGEGGAGTFSDGKLYSQVKDPNFYGRKVITEFVEAGAPEEILYVSKPHIGTFKLVTMIEKMRAKIIELGGEIRFSTRVDDIHMQDGQITGVILSNGEEIQSRHVVLAVGHSARDTFEMLHARGVYMEAKPFSVGFRIEHKQSMIDEARFGPSAGHPILGAADYKLVHHCKNGRTVYSFCMCPGGTVVAATSEEGRVVTNGMSQYSRAERNANSAIVVGISPEQDYPGDPLAGIRLQRELETNAYKLGGETYDAPAQKIGDFLKGRNPSELGDVQPSFTPGIKLTDLSKALPAFAVEAIREAIPEFDRQIKGFASEDGLLTGVETRTSSPVCIKRGKDFQSINLKGFYPAGEGAGYAGGILSAGIDGIKVAEAVARDMMARFAGELEHHHHHH | soluble
MDVQQRLGGLLEITESRICLHCLGRHFVDLVEGPGNRLRGEKLQKKFSLKLSGPCMICGDVFDRIDEAAGMVKEKVDELGLEYSSVLVGTRLPPKMVELDDEIRKRLGIQTEGLKRDLNRELGKRVVKLLGCSAEFEDPDLVVMVDFRGDIRVWIQINPLFLEGRYRKLVRGIPQTRWPCRKCRGRGCERCNYTGKMYPTSVEELIAGPILEASQGRDARFHGSGREDVDVRMLGTGRPFVLEIREPRVRNLDPESLEEEVNRRAQGMVEVEGLRFSTRKRKVELKDSSQSRYKVYRALVELDGDVTDEDLERLGSLDIIKQRTPVRVSHRRADRVRERRVLEISWNLLDGCLELIIKGEGGLYIKELISGDSGRTEPSVSSVLGVPARCVALDVLEVGDEPSEKDLEHHHHHH | soluble
MKIVIGTKIKEQRQQHEWSQQTVAERLHVSRQTISKWELGKSYPDLELLVALSKLFSVSTDELLGLSRRPVQRPWWQLLLRKRSRTDMTVKWYSGGQDRARVAVGIISDLVANLNTTNEQPLRQLLATYYQELLEQRTGSVLGVFDRMNLDISKCLRQQQIKLSPENEQLMQQLVGLNMIYYR | not soluble
ALGDTLTITLGGSGGTAKVLRKINQDGYTSEYYLPETSSSFRAKVRHTKESVKPNQVQYERHNVEFTETVYASGSTPEFVRQAYVVIRHKVGDVSATVSDLGEALSFYLNEALYGKLIGWES | soluble
MQHAKIFFVIASVKFLMILSIHNYTQMSKTCKLRTVARKTVMEFEGVEDFIVPFVNYTKRFMVAPDKKLISCTLRKSMSQLAENIMCLLYDEQQYFANSQSLNDTWKDERKCEHDRSYLNPSETLLNDTDTVRFAFIRDPFQRFISFYLDKCVREQKCYNCGNNMTCVLKNFYWGLKKVQRRWDGREQPEYVEIHAAPLSWNCDFYKDLSKWQLIPIGSDKTERSSAITQTEKILRKQRVNETLVDMVVDGMKDGDTDHSTYKSAHRLEAERQIREDPYIREMLHKIYYFDYVVFPFNRDSLDLKFQDTSCTIPLP | not soluble
MSKPLPLVTRQGDRIVIVNGLRTPFAKQATAYHGVPAVDLGKIVVSELLARSGISSELIDQLVFGQVVQMPEAPNIAREIVLGTGMSVHTDAYSVSRACATSFQAVANVAESIIAGSVDIAIAGGADSSSVLPIGVSKALARTLVDANKARSLSQKLKLFSRLRLRDLLPVAPAVAEYSTGLRMGDTAEQMAKTYGISREDQDALALRSHQLAAEAWQQGWLHDEVMTAYIPPYREAIIEDNNIRKDSTLAQYAKLRPAFDRQHGSVTAANSTPLTDGAAAVLMMSESKAKALGLPPLGYLRSFAFSAIDVWQDMLLGPSYATPLALDRAGITLADLTLIDMHEAFAAQTLANLKMFASDTFAREKLGRSQAIGEVDMSKFNVLGGSIAYGHPFAATGARMITQTLNELRRRGGGLGLTTACAAGGLGAAMILEVE | not soluble
MGSDKIHHHHHHMADRIEFVKNYSDLSTNKGFQFEFYCDRCGSGYRTRFKPSITGTVTGVLDTAGSLLGGLFSSAADVSERVRSASWEKSHDDAFEDACNELKPDFIQCPRCSSWVCRQKCWNKKKGLCKECAPDLGVEMAAAQASKSVEEIWAHAAMAEEDKKLGLENWRENVRASCPECEAPLASNAKFCPECGAKLKAAQFCPSCGAKVNPGSKFCAECGEKF | not soluble
MSLRGGEDSPVDGARQAAANVFGPIENGVSSAVDPVGNAVSAVRDSGDRHDRLARLETENAALKAKSGSDERGRSRLKQFDKMLGLAGAGQYGIKGAQVIAIGAAQGFSWTITIDAGANDGVKRDMTVLNGDGLVGRVTTVGPNTATVLLANDPDFTVGTRMESGDELGFASGQGSRPLRVELLNGKADVKKGDRLVTFGSQADKPFVPGVPVGTITRVDPNGGDLTRILDVTPFVSFTKLDIVGVVVQAPSKDPRDTVLPEKKQPKPTPTVTVTVTPGADPEGQTRNDEAGQDEAAGQNDATGQNDQTEQQNEQPEPEGHHHHHH | soluble
MDVLNAANDLLPLLPEVQDALSEDFDGVECSMGAGVVLEQAPFRMAFPHMGRQVTFVPDTSCLEEFDGAKLHRINLGPKSAVFTDGEPGCCMELILGAGKDWKTPLVKLFSRVYPNKWAFFITELESGQATYHILSSSHGMLSSARREDTPDSTEQSSMVSSPTASVSDATNYSLWIVPVTKVFAIPAPKKVKVVRKVIKKRTPVDGSTNGTNGTSVVNGNGTMNGHVSPEDGERKVRLVKKKPPTEKLESSTEREISPLNDLPKPEFSTIASSESMKTVINGKSEREEAGPSNDSSDGGSASELRKKLTEKIMEQKFMVNGEQRALNGNASSRGLGRSISRSSMTPDRRLDPILEDGSKQRQAIASAISVNRPSITRNSATPPMTPHSKLALEMLFKLDKLWKYFKFIYSKCRYTFIQFFNSTFSNTKIYSVEIMDAEVIKVLVSHPSKPNIPVMVLQLVLTKCLNYEHLGRLREVHPHWDEIAGQLLNSGYYKLLERSDKLLMTLQRKVVSDPGLHYATSVLTNIQMHILNPVDIMRAVLDEGVCCFPYGVILDKTFILLDKVEAMLHGSYEEDVHWEPVAKLAKKAASHYRGNLERVMEERMGENLRLKAAQRIIRLESFVVDAQVAKLEKESNKAKEDVRWEIDQLHQKNSQLRKDNREMKANQMRLEARVEALEQKFKTLARLLS | not soluble
